Measurements: patent US20180087042A1 (OPKO BIOLOGICS, published 2018)

Assays:
Assay in all cases: cell-based or functional assay
[1] = target: MOD-5014 (FVIIa-CTP3: activated Factor VII with three CTP peptides attached at the C-terminus) (human) (UniProt P08709)
[2] = target: NovoSeven® (commercial recombinant human FVIIa) (human) (UniProt P08709)
[3] = target: Factor X (UniProt P00742 41-488, limits assumed)
Sequence of Factor X (P00742 41-488 limits assumed): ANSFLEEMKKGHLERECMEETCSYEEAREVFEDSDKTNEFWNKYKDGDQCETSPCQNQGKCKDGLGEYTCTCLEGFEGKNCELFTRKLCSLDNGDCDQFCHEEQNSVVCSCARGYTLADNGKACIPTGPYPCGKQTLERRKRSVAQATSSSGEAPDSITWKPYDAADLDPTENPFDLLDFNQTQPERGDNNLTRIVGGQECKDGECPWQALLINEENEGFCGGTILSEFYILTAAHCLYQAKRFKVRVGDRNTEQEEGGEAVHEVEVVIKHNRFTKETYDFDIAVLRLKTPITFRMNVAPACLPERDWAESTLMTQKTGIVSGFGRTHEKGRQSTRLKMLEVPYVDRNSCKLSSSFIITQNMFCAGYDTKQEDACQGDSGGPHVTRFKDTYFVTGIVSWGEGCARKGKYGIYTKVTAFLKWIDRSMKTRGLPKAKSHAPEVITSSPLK

Sequence of MOD-5014 (FVIIa-CTP3: activated Factor VII with three CTP peptides attached at the C-terminus) (human) (P08709 61-212, chain 1 of 2): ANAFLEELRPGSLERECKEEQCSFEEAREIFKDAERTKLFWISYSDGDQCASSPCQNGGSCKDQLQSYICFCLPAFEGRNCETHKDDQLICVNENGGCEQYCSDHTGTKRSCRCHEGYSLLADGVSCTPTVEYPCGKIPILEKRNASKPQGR
Sequence of MOD-5014 (FVIIa-CTP3: activated Factor VII with three CTP peptides attached at the C-terminus) (human) (P08709 other isoform, or with tags, fused parts or gaps, chain 2 of 2): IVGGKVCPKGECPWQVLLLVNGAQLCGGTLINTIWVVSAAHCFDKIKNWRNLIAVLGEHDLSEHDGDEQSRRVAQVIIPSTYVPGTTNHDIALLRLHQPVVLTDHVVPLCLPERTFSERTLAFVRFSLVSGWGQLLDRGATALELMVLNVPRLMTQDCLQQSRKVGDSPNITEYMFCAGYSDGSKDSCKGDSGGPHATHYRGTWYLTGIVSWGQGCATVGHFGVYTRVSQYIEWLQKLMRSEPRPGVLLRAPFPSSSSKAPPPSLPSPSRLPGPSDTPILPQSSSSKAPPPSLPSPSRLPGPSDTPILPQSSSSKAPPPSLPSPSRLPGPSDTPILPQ
Sequence of NovoSeven® (commercial recombinant human FVIIa) (human) (P08709 61-466 limits assumed): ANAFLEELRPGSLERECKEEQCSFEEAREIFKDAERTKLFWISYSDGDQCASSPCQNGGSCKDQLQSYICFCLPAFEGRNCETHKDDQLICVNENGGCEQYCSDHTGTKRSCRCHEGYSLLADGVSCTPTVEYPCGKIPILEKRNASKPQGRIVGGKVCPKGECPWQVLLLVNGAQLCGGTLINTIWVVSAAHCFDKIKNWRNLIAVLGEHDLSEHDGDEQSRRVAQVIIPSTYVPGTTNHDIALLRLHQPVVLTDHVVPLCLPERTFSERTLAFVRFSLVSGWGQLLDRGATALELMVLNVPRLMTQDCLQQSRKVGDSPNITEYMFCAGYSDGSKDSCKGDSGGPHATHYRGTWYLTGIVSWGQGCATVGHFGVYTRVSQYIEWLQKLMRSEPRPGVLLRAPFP
Sequence of NovoSeven® (commercial recombinant human FVIIa) (P08709 61-466 limits assumed): as above

“Anti thrombin III (ATIII) (from UniProt P01008 33-464)” showed a % Inhibition of clotting activity, AT 1.050 ng/mL [1] of 25%, a % Inhibition of clotting activity, AT 10.5 ng/mL [1] of 28% and a % Inhibition of clotting activity, AT 105 ng/mL [1] of 25%. For the same substance, the % Inhibition of clotting activity, AT 10,500 ng/mL [1] was 25%, the % Inhibition of clotting activity, AT 105000 ng/mL [1] was 62% and the % Inhibition of clotting activity, AT 525000 ng/mL [1] was 100%. For the same substance, the Activity (mU/mL), Staclot clotting, AT 1.050 ng/mL [1] was 52.9 mU/mL, the Activity (mU/mL), Staclot clotting, AT 10.5 ng/mL [1] was 50.7 mU/mL and the Activity (mU/mL), Staclot clotting, AT 105 ng/mL [1] was 53.3 mU/mL. The Activity (mU/mL), Staclot clotting, AT 1,050 ng/mL [1] was 53.4 mU/mL, the Activity (mU/mL), Staclot clotting, AT 10,500 ng/mL [1] was 53 mU/mL and the Activity (mU/mL), Staclot clotting, AT 105000 ng/mL [1] was 27 mU/mL. The Activity (mU/mL), Staclot clotting, AT 525000 ng/mL [1] was 0 mU/mL, the O.D, FX activation by MOD-5014 (0.7 ng/ml) at AT 0.16 µg/ml [1] was 1.18 O.D and the O.D, FX activation by MOD-5014 (0.7 ng/ml) at AT 0.8 µg/ml [1] was 1.07 O.D. It also gave an O.D, FX activation by MOD-5014 (0.7 ng/ml) at AT 4 µg/ml [1] of 1.14 O.D, an O.D, FX activation by MOD-5014 (0.7 ng/ml) at AT 20 µg/ml [1] of 1.11 O.D and an O.D, FX activation by MOD-5014 (0.7 ng/ml) at AT 100 µg/ml [1] of 0.974 O.D. The O.D, FX activation by MOD-5014 (0.7 ng/ml) at AT 500 µg/ml [1] was 0.975 O.D, the O.D, FX activation by MOD-5014 (0.7 ng/ml) at AT 1680 µg/ml [1] was 0.656 O.D and the O.D., FX activation by MOD-5014 (0.7 ng/ml) with AT III 20 µg/ml and heparin 0.002 U/µl [1] was 1.29 O.D. For the same substance, the O.D., FX activation by MOD-5014 (0.7 ng/ml) with AT III 20 µg/ml and heparin 0.01 U/µl [1] was 1.14 O.D, the O.D., FX activation by MOD-5014 (0.7 ng/ml) with AT III 20 µg/ml and heparin 0.25 U/µl [1] was 0.017 O.D and the O.D., FX activation by MOD-5014 (0.7 ng/ml) with AT III 20 µg/ml and heparin 1.25 U/µl [1] was 0.896 O.D. It also gave an O.D., FX activation by MOD-5014 (0.7 ng/ml) with AT III 20 µg/ml and heparin 6.25 U/µl [1] of 1.02 O.D, a % Inhibition of clotting activity, AT 1.050 ng/mL [2] of 21% and a % Inhibition of clotting activity, AT 105 ng/mL [2] of 20%. For the same substance, the % Inhibition of clotting activity, AT 10,500 ng/mL [2] was 30%, the % Inhibition of clotting activity, AT 525000 ng/mL [2] was 100% and the Activity (mU/mL), Staclot clotting, AT 1.050 ng/mL [2] was 69.5 mU/mL. It also gave an Activity (mU/mL), Staclot clotting, AT 10.5 ng/mL [2] of 68.4 mU/mL, an Activity (mU/mL), Staclot clotting, AT 105 ng/mL [2] of 70.2 mU/mL and an Activity (mU/mL), Staclot clotting, AT 1,050 ng/mL [2] of 66.8 mU/mL. It also gave an Activity (mU/mL), Staclot clotting, AT 10,500 ng/mL [2] of 61.5 mU/mL, an Activity (mU/mL), Staclot clotting, AT 105000 ng/mL [2] of 30.6 mU/mL and an Activity (mU/mL), Staclot clotting, AT 525000 ng/mL [2] of 0 mU/mL. It also gave an O.D, FX activation by NovoSeven (0.7 ng/ml) at AT 0.16 µg/ml [2] of 1.23 O.D, an O.D, FX activation by NovoSeven (0.7 ng/ml) at AT 4 µg/ml [2] of 1.17 O.D and an O.D, FX activation by NovoSeven (0.7 ng/ml) at AT 20 µg/ml [2] of 1.15 O.D. It also gave an O.D, FX activation by NovoSeven (0.7 ng/ml) at AT 100 µg/ml [2] of 1.14 O.D, an O.D, FX activation by NovoSeven (0.7 ng/ml) at AT 500 µg/ml [2] of 0.933 O.D and an O.D, FX activation by NovoSeven (0.7 ng/ml) at AT 1680 µg/ml [2] of 0.784 O.D. The O.D., FX activation by NovoSeven (0.7 ng/ml) with AT III 20 µg/ml and heparin 0.002 U/µl [2] was 1.24 O.D, the O.D., FX activation by NovoSeven (0.7 ng/ml) with AT III 20 µg/ml and heparin 0.01 U/µl [2] was 1.2 O.D and the O.D., FX activation by NovoSeven (0.7 ng/ml) with AT III 20 µg/ml and heparin 0.25 U/µl [2] was 1.04 O.D. It also gave an O.D., FX activation by NovoSeven (0.7 ng/ml) with AT III 20 µg/ml and heparin 1.25 U/µl [2] of 0.98 O.D and an O.D., FX activation by NovoSeven (0.7 ng/ml) with AT III 20 µg/ml and heparin 6.25 U/µl [2] of 1 O.D.

“NovoSeven® (commercial recombinant human FVIIa) (from UniProt P08709 61-466) (enzyme)” gave an EC50 of Factor X activation (BIOPHEN FVII chromogenic assay) [3] of 0.38 ng/mL, an O.D, FX activation at rFVIIa 0.00128 ng/ml [3] of 0.123 O.D and an O.D, FX activation at rFVIIa 0.00640 ng/ml [3] of 0.133 O.D. It also gave an O.D, FX activation at rFVIIa 0.0320 ng/ml [3] of 0.138 O.D, an O.D, FX activation at rFVIIa 0.160 ng/ml [3] of 0.178 O.D and an O.D, FX activation at rFVIIa 0.80 ng/ml [3] of 0.303 O.D. The O.D, FX activation at rFVIIa 4.00 ng/ml [3] was 0.352 O.D, the O.D, FX activation at rFVIIa 20.00 ng/ml [3] was 0.365 O.D and the O.D, FX activation at rFVIIa 100.00 ng/ml [3] was 0.363 O.D.
